Test results from the supplement of paper PMC10567573.

B1: FUT8 (parent)
chain: YPSYKVREKIETVKYPTYPEAEK

Variants of: B1
Assay: protein stability index of a GFP-peptide fusion (GPS, HEK-293T) (PSI 1-6); higher = more stable
Conditions: c terminus: native
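Also: lentivirally expressed fusions sorted by FACS into six bins by GFP to DsRed ratio, PSI derived from sequencing read proportions per bin multiplied by bin number.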

**Q.** With YPSYKVREKIETVKGPTYPEAEK [Y15G] as the variant, how does the protein stability index read?
**A.** 4.85

**Q.** With YPSYKVREKIETVKCPTYPEAEK [Y15C] as the variant, how does the protein stability index read?
**A.** 3.88

**Q.** For YPSYKVREKIETVKRPTYPEAEK [Y15R], which protein stability index is on record?
**A.** 4.22

**Q.** With YPSYKVREKIETVKEPTYPEAEK [Y15E] as the variant, how does the protein stability index read?
**A.** 4.59

**Q.** With YPSYKVREKIETVKKPTYPEAEK [Y15K] as the variant, how does the protein stability index read?
**A.** 5.03

**Q.** For YPSYKVREKIETVKQPTYPEAEK [Y15Q], which protein stability index is on record?
**A.** 4.77

**Q.** With YPSYKVREKIETVKHPTYPEAEK [Y15H] as the variant, how does the protein stability index read?
**A.** 4.72

**Q.** Which protein stability index does the source give for YPSYKVREKIEPVKYPTYPEAEK [T12P] here?
**A.** 4.49

**Q.** Which protein stability index does the source give for YPSYKVREKIEQVKYPTYPEAEK [T12Q] here?
**A.** 4.94

**Q.** Which protein stability index does the source give for YPSYKVREKIENVKYPTYPEAEK [T12N] here?
**A.** 3.62

**Q.** Which protein stability index does the source give for YPSYKVREKIESVKYPTYPEAEK [T12S] here?
**A.** 3.91

**Q.** With YPSYKVREKIEYVKYPTYPEAEK [T12Y] as the variant, how does the protein stability index read?
**A.** 4.15

**Q.** Which protein stability index does the source give for YPSYKVREKIEFVKYPTYPEAEK [T12F] here?
**A.** 3.06

**Q.** Which protein stability index does the source give for YPSYKVREKIEEVKYPTYPEAEK [T12E] here?
**A.** 4.33

**Q.** Which protein stability index does the source give for YPSYKVREKIEAVKYPTYPEAEK [T12A] here?
**A.** 3.92

**Q.** For YPSYKVREKIEWVKYPTYPEAEK [T12W], which protein stability index is on record?
**A.** 3.21

**Q.** For YPSYKVREKIEGVKYPTYPEAEK [T12G], which protein stability index is on record?
**A.** 4.01

**Q.** With YPSYKVREKIEVVKYPTYPEAEK [T12V] as the variant, how does the protein stability index read?
**A.** 2.14

**Q.** Which protein stability index does the source give for YPSYKVREKIEKVKYPTYPEAEK [T12K] here?
**A.** 4.71

**Q.** With YPSYKVREKIEDVKYPTYPEAEK [T12D] as the variant, how does the protein stability index read?
**A.** 4.57

**Q.** With YPSYKVREKIELVKYPTYPEAEK [T12L] as the variant, how does the protein stability index read?
**A.** 3.14

**Q.** For YPSYKVREKIEHVKYPTYPEAEK [T12H], which protein stability index is on record?
**A.** 3.25

**Q.** Which protein stability index does the source give for YPSYKVREKIECVKYPTYPEAEK [T12C] here?
**A.** 4.17

**Q.** Which protein stability index does the source give for YPSYKVREKIERVKYPTYPEAEK [T12R] here?
**A.** 4.05

**Q.** With YPSYKVGEKIETVKYPTYPEAEK [R7G] as the variant, how does the protein stability index read?
**A.** 4.7

**Q.** Which protein stability index does the source give for YPSYKVDEKIETVKYPTYPEAEK [R7D] here?
**A.** 4.67

**Q.** Which protein stability index does the source give for YPSYKVQEKIETVKYPTYPEAEK [R7Q] here?
**A.** 4.45

**Q.** For YPSYKVAEKIETVKYPTYPEAEK [R7A], which protein stability index is on record?
**A.** 4.54

**Q.** For YPSYKVWEKIETVKYPTYPEAEK [R7W], which protein stability index is on record?
**A.** 2.79

**Q.** For YPSYKVKEKIETVKYPTYPEAEK [R7K], which protein stability index is on record?
**A.** 4.16

**Q.** Which protein stability index does the source give for YPSYKVMEKIETVKYPTYPEAEK [R7M] here?
**A.** 4.48

**Q.** For YPSYKVNEKIETVKYPTYPEAEK [R7N], which protein stability index is on record?
**A.** 4.59

**Q.** For YPSYKVSEKIETVKYPTYPEAEK [R7S], which protein stability index is on record?
**A.** 4.49

**Q.** For YPSYKVFEKIETVKYPTYPEAEK [R7F], which protein stability index is on record?
**A.** 2.52

**Q.** With YPSYKVVEKIETVKYPTYPEAEK [R7V] as the variant, how does the protein stability index read?
**A.** 3.85

**Q.** Which protein stability index does the source give for YPSYKVCEKIETVKYPTYPEAEK [R7C] here?
**A.** 3.76

**Q.** With YPSYKVTEKIETVKYPTYPEAEK [R7T] as the variant, how does the protein stability index read?
**A.** 3.96

**Q.** With YPSYKVYEKIETVKYPTYPEAEK [R7Y] as the variant, how does the protein stability index read?
**A.** 3.6

**Q.** Which protein stability index does the source give for YPSYKVHEKIETVKYPTYPEAEK [R7H] here?
**A.** 3.84

**Q.** For YPSYKVIEKIETVKYPTYPEAEK [R7I], which protein stability index is on record?
**A.** 3.73

**Q.** For YPSYKVEEKIETVKYPTYPEAEK [R7E], which protein stability index is on record?
**A.** 4.7

**Q.** For YPSYKVLEKIETVKYPTYPEAEK [R7L], which protein stability index is on record?
**A.** 4.48

**Q.** With YPSYKVPEKIETVKYPTYPEAEK [R7P] as the variant, how does the protein stability index read?
**A.** 4.67

**Q.** With YPSYKVREMIETVKYPTYPEAEK [K9M] as the variant, how does the protein stability index read?
**A.** 4.24

**Q.** With YPSYKVREWIETVKYPTYPEAEK [K9W] as the variant, how does the protein stability index read?
**A.** 1.99

**Q.** With YPSYKVREPIETVKYPTYPEAEK [K9P] as the variant, how does the protein stability index read?
**A.** 4.74

**Q.** Which protein stability index does the source give for YPSYKVRENIETVKYPTYPEAEK [K9N] here?
**A.** 4.38

**Q.** For YPSYKVRELIETVKYPTYPEAEK [K9L], which protein stability index is on record?
**A.** 2.91

**Q.** Which protein stability index does the source give for YPSYKVREAIETVKYPTYPEAEK [K9A] here?
**A.** 4.31

**Q.** Which protein stability index does the source give for YPSYKVREGIETVKYPTYPEAEK [K9G] here?
**A.** 4.12

**Q.** For YPSYKVREQIETVKYPTYPEAEK [K9Q], which protein stability index is on record?
**A.** 4.25

**Q.** Which protein stability index does the source give for YPSYKVREHIETVKYPTYPEAEK [K9H] here?
**A.** 3.62

**Q.** For YPSYKVRERIETVKYPTYPEAEK [K9R], which protein stability index is on record?
**A.** 3.98

**Q.** With YPSYKVREIIETVKYPTYPEAEK [K9I] as the variant, how does the protein stability index read?
**A.** 3.1

**Q.** For YPSYKVREYIETVKYPTYPEAEK [K9Y], which protein stability index is on record?
**A.** 2.56

**Q.** With YPSYKVRESIETVKYPTYPEAEK [K9S] as the variant, how does the protein stability index read?
**A.** 4.28

**Q.** Which protein stability index does the source give for YPSYKVRETIETVKYPTYPEAEK [K9T] here?
**A.** 4.44

**Q.** Which protein stability index does the source give for YPSYKVRECIETVKYPTYPEAEK [K9C] here?
**A.** 4.43

**Q.** Which protein stability index does the source give for YPSYKVREVIETVKYPTYPEAEK [K9V] here?
**A.** 3.23

**Q.** For YPSYKVREEIETVKYPTYPEAEK [K9E], which protein stability index is on record?
**A.** 4.5

**Q.** With YPSYKVREFIETVKYPTYPEAEK [K9F] as the variant, how does the protein stability index read?
**A.** 2.64

**Q.** Which protein stability index does the source give for YPSYKVREDIETVKYPTYPEAEK [K9D] here?
**A.** 4.14

**Q.** With YPSYKVREKIETVKYSTYPEAEK [P16S] as the variant, how does the protein stability index read?
**A.** 3.75

**Q.** Which protein stability index does the source give for YPSYKVREKIETVKYRTYPEAEK [P16R] here?
**A.** 3.95

**Q.** For YPSYKVREKIETVKYCTYPEAEK [P16C], which protein stability index is on record?
**A.** 3.7

**Q.** With YPSYKVREKIETVKYDTYPEAEK [P16D] as the variant, how does the protein stability index read?
**A.** 4.4

**Q.** Which protein stability index does the source give for YPSYKVREKIETVKYETYPEAEK [P16E] here?
**A.** 4.29

**Q.** For YPSYKVREKIETVKYVTYPEAEK [P16V], which protein stability index is on record?
**A.** 4.6

**Q.** For YPSYKVREKIETVKYKTYPEAEK [P16K], which protein stability index is on record?
**A.** 4.19

**Q.** For YPSYKVREKIETVKYITYPEAEK [P16I], which protein stability index is on record?
**A.** 3.65

**Q.** With YPSYKVREKIETVKYGTYPEAEK [P16G] as the variant, how does the protein stability index read?
**A.** 4.28

**Q.** With YPSYKVREKIETVKYHTYPEAEK [P16H] as the variant, how does the protein stability index read?
**A.** 4.06

**Q.** With YPSYKVREKIETVKYYTYPEAEK [P16Y] as the variant, how does the protein stability index read?
**A.** 3.62

**Q.** For YPSYKVREKIETVKYLTYPEAEK [P16L], which protein stability index is on record?
**A.** 4.03

**Q.** For YPSYKVREKIETVKYTTYPEAEK [P16T], which protein stability index is on record?
**A.** 4.13

**Q.** With YPSYKVREKIETVKYFTYPEAEK [P16F] as the variant, how does the protein stability index read?
**A.** 4.79

**Q.** With YPSYKVREKIETVKYATYPEAEK [P16A] as the variant, how does the protein stability index read?
**A.** 3.89

**Q.** For YPSYKVREKIETVKYMTYPEAEK [P16M], which protein stability index is on record?
**A.** 4

**Q.** Which protein stability index does the source give for YPSYKVREKIETVKYWTYPEAEK [P16W] here?
**A.** 2.78

**Q.** With YPSYKVREKIETVKYNTYPEAEK [P16N] as the variant, how does the protein stability index read?
**A.** 4.12

**Q.** For YPSYKVREKIETVKYQTYPEAEK [P16Q], which protein stability index is on record?
**A.** 4.14

**Q.** With YPSYKVREKISTVKYPTYPEAEK [E11S] as the variant, how does the protein stability index read?
**A.** 4.07

**Q.** With YPSYKVREKITTVKYPTYPEAEK [E11T] as the variant, how does the protein stability index read?
**A.** 3.5

**Q.** With YPSYKVREKIVTVKYPTYPEAEK [E11V] as the variant, how does the protein stability index read?
**A.** 3.59

**Q.** With YPSYKVREKIYTVKYPTYPEAEK [E11Y] as the variant, how does the protein stability index read?
**A.** 3.44

**Q.** For YPSYKVREKILTVKYPTYPEAEK [E11L], which protein stability index is on record?
**A.** 4.01

**Q.** With YPSYKVREKIITVKYPTYPEAEK [E11I] as the variant, how does the protein stability index read?
**A.** 3.34

**Q.** For YPSYKVREKICTVKYPTYPEAEK [E11C], which protein stability index is on record?
**A.** 3.91

**Q.** Which protein stability index does the source give for YPSYKVREKIMTVKYPTYPEAEK [E11M] here?
**A.** 3.46

**Q.** With YPSYKVREKINTVKYPTYPEAEK [E11N] as the variant, how does the protein stability index read?
**A.** 3.1

**Q.** For YPSYKVREKIATVKYPTYPEAEK [E11A], which protein stability index is on record?
**A.** 4.3

**Q.** For YPSYKVREKIHTVKYPTYPEAEK [E11H], which protein stability index is on record?
**A.** 3.8

**Q.** For YPSYKVREKIKTVKYPTYPEAEK [E11K], which protein stability index is on record?
**A.** 4.32

**Q.** For YPSYKVREKIPTVKYPTYPEAEK [E11P], which protein stability index is on record?
**A.** 4.12

**Q.** For YPSYKVREKIFTVKYPTYPEAEK [E11F], which protein stability index is on record?
**A.** 3.15

**Q.** With YPSYKVREKIQTVKYPTYPEAEK [E11Q] as the variant, how does the protein stability index read?
**A.** 4.27

**Q.** For YPSYKVREKIGTVKYPTYPEAEK [E11G], which protein stability index is on record?
**A.** 3.59
